This passage reports Kd and mean particle size increase after free calcium (DLS, normalised) results from paper PMC5051681.

The target of experiment [1] is C1a - 10 nm - C2 SPASM biosensor (human) (UniProt P17252). In words: FRET or BRET; change in heteroFRET after addition of free calcium against the concentration of C1a - 10 nm - C2; Hill binding model; half-maximal value taken as an estimate of the dissociation constant.
Experiment [2] deals with PKC alpha C2 (UniProt P17252). To be noted: cited from earlier work.
Experiment [3] deals with regulatory domains of PKCα with mCer (N-terminal TEV product of the PKCα sensor cut between C2 and kinase) (human). The experiment can be described thus: dynamic light scattering; sensor pre-treated with TEV protease or BSA, or C2-mCit; relative increase in particle mass after 2 min with free calcium, matched concentration.
The target in experiment [4] is PKCα sensor (N-terminal mCer, C-terminal mCit) with a TEV protease site between the C2 and kinase domains (human) (UniProt P17252). The description is as above.

As usually defined, the Kd is the constant that tells how readily two partners part at equilibrium. As to “C1a - 10 nm - C2 SPASM biosensor (from UniProt P17252 32-100; P17252 158-292)”, the Kd in experiment [1] was 61.1 nM.

Consider PKC alpha C1a (from UniProt P17252), for which, in experiment [2], the Kd was 4 nM.

Consider “regulatory domains of PKCα with mCer (N-terminal TEV product of the PKCα sensor cut between C2 and kinase) (domain or fragment)”, for which the mean particle size increase after free calcium (DLS, normalised) in experiment [3] stood at 2.61.

“PKCα sensor (N-terminal mCer, C-terminal mCit) with a TEV protease site between the C2 and kinase domains (from UniProt P17252 1-672) (natural protein)”: the mean particle size increase after free calcium (DLS, normalised) in experiment [4] is 5.61.
